Biological target: epidermal growth factor receptor (EGFR) (human, UniProt P00533 25-1210)
Assay: cell-based or functional assay

B1: EGF4 KDEL (ligand)
chain: MNSDSECPLSHDGYCLHDGVCMYIEALDKYACNCVVGYIGERCQYRDLKWWELRPSGQAGAAASESLFVSNHAYMGLTSQLLPPLFFLLACAGNFVHGHKCDITLQEIIKTLNSLTEQKTLCTELTVTDIFAASKNTTEKETFCRAATVLRQFYSHHEKDTRCLGATAQQFHRHKQLIRFLKRLDRNLWGLAGLNSCPVKEANQSTLENFLERLKTIMREKYSKCSSEASGGPEPEGGSLAALTAHQACHLPLETFTRHRQPRGWEQLEQCGYPVQRLVALYLAARLSWNQVDQVIRNALASPGSGGDLGEAIREQPEQARLALTLAAAESERFVRQGTGNDEAGAANADVVSLTCPVAAGECAGPADSGDALLERNYPTGAEFLGDGGDVSFSTRGTQNWTVERLLQAHRQLEERGYVFVGYHGTFLEAAQSIVFGGVRARSQDLDAIWRGFYIAGDPALAYGYAQDQEPDARGRIRNGALLRVYVPRSSLPGFYRTSLTLAAPEAAGEVERLIGHPLPLRLDAITGPEEEGGRLETILGWPLAERTVVIPSAIPTDPRNVGGDLDPSSIPDKEQAISALPDYASQPGKPPKDEL
  IC50, killing of MDA-MB-231 cells (3H-thymidine uptake assay): 2 pM
